# Experimental data published in PMC6151112, “Identification of MOS9 as an interaction partner for chalcone synthase in the nucleus” (PeerJ, 2018).
# T1: recombinant chalcone synthase (CHS) (Arabidopsis, UniProt P13114 1-395)
# T1 construct: chalcone synthase (CHS), Arabidopsis, At5g13930; The construct for recombinant CHS is not described; earlier work of the same laboratory may hold it (possibly with a carrier protein); also called recombinant CHS; source: E. coli BL21 (DE3) pLysS, purified (nickel column, FPLC)
# T1 sequence (looked up): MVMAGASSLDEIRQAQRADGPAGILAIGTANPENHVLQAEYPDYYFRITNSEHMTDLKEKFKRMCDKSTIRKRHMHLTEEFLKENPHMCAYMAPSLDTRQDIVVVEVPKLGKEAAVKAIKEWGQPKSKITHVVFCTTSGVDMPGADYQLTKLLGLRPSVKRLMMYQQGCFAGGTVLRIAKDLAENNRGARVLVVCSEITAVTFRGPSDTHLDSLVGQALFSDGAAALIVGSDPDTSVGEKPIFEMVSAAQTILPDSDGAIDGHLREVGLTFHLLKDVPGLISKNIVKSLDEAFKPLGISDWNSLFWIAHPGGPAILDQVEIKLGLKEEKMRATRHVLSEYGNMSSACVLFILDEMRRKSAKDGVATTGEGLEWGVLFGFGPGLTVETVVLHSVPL
# Key:
# [1] = molecular target: CHS-syfp2 fusion (Arabidopsis) (UniProt P13114); assay: FRET or BRET; frequency domain FLIM-FRET in Arabidopsis tt4-11 mesophyll protoplasts; donor MOS9-scfp3a, acceptor SYFP2 fusions; E from phase-shift lifetimes
# [2] = molecular target: T1, recombinant chalcone synthase (CHS); assay: SPR; CHS immobilised by amine coupling on a planar PEG/carboxyl chip (Reichert SR7000); MOS9 0.1-1 uM flowed over in 10 mM HEPES pH 7.5, 150 mM NaCl, 1 mg/ml BSA, 50 ul/min; KD from Koff/Kon; settings: both partners purified
Molecule,FRET efficiency E τ(φ) [1] [%],Kd [2] [nM]
MOS9-scfp3a fusion (natural protein),6.5,–
"MOS9::V5::6xHis recombinant protein (natural protein, Arabidopsis, UniProt F4IDT4 1-193, looked up, MOS9, Arabidopsis, At1g12530, coding region minus the stop codon (193 amino acids), from clone pENTR221-AT1G12530, recombined into pET-DEST42; Gateway recombination leaves linker residues between MOS9 and the tags; also called At1g12530 protein; recombinant protein generated in E. coli from At1g12530 cDNA; source: E. coli BL21 (DE3) pLysS, purified (nickel column, FPLC); not shown: V5, …) MMGMARKISKEEVVEKLKDDGDFDRLRLKIIRRLKENEDLRNNMISVVKESTSLKRHGAQNMKTRQLSDAIFEEVGSKMLSQLSDGLWGIIRSEDGMKNEIRETVQSVYATLSNPRGEKRGTSAREMEHKIPTPKKEARTDFNTSPASKQKQELIKGAVEDNKGEACSDDVQDNKGEAYNDDEEDPELPPGFG",–,210
